T1: S87 peptide
T1 construct: Synthetic HVR 1 peptide
T1 peptide: CTGFSKHNNMGSQQKV

B1: mAb 2P24 (antibody, V domains shown)
V domain 1: EFQLQQSGAELVRPGPLVTLSCKASGFNIKDYYMNWVKQRPEQGLEWIGRIDPKNGNALYDPKFQDKARITADTSSNTAYLQLNSLTSEATAVYYCSSGWLDYWGQGTSLAVYS
V domain 2: DIVMTQSPASLAVFRGQRATISYRASKSVSTSGYSYMHWNQQKPGQPPRLLIYLVSNLESGVPARFSGSGSGTDFTLNIHPVEEEDAATYYCQHIRELTAFGGGTK
B2: mAb 15H4 (antibody, V domains shown)
VH: QVQLQQSGAELARPGASVKLSCKASGYTFTRYWMQWVKQKPGQGLEWIGAIYCGDGDTRFTQKFKGKATLTADKSSSTAYMQLSNLASEDSAVYYCVIYGNYYDAMDYWGQGTSVTVSS
VL: DIVMTQAPLSMPVSLGDQASISGRSSQSLVHSNGNTYLHWYLQKPGQSPKLLIHKVSKRFSGVPDRFSGSGSGTDFTLKIRRVEAEDLGVYFCSQNTHVPFTFGGGTK

Assays:
S82 peptide = assay: peptide EIA, Nunc-Immuno and CovaLab plates
S67 peptide [1] = assay: peptide EIA, Nunc-Immuno and CovaLab plates
S66 peptide = assay: peptide EIA, Nunc-Immuno and CovaLab plates
G3895 peptide = assay: peptide EIA, Nunc-Immuno and CovaLab plates
S53 peptide = assay: peptide EIA, Nunc-Immuno and CovaLab plates
EH1 peptide = assay: peptide EIA, Nunc-Immuno and CovaLab plates
G4720 peptide = assay: peptide EIA, Nunc-Immuno and CovaLab plates
G4309 peptide = assay: peptide EIA, Nunc-Immuno and CovaLab plates
S83 peptide = assay: peptide EIA, Nunc-Immuno and CovaLab plates
S54 peptide = assay: peptide EIA, Nunc-Immuno and CovaLab plates
DH2 peptide = assay: peptide EIA, Nunc-Immuno and CovaLab plates
S85 peptide [2] = assay: peptide EIA, Nunc-Immuno and CovaLab plates
S52 peptide = assay: peptide EIA, Nunc-Immuno and CovaLab plates
S67 peptide [3] = assay: IAsys biosensor, BSA-HVR1 peptide conjugate
S85 peptide [4] = assay: IAsys biosensor, BSA-HVR1 peptide conjugate
US1 peptide = assay: peptide EIA, Nunc-Immuno and CovaLab plates
S87 peptide = molecular target: T1, S87 peptide; assay: peptide EIA, Nunc-Immuno and CovaLab plates

Binder	EIA Sample/Cutoff ratio (S/CO) (S82 peptide)	EIA Sample/Cutoff ratio (S/CO) (S67 peptide [1])	EIA Sample/Cutoff ratio (S/CO) (S66 peptide)	EIA Sample/Cutoff ratio (S/CO) (G3895 peptide)	EIA Sample/Cutoff ratio (S/CO) (S53 peptide)	EIA Sample/Cutoff ratio (S/CO) (EH1 peptide)	EIA Sample/Cutoff ratio (S/CO) (G4720 peptide)	EIA Sample/Cutoff ratio (S/CO) (G4309 peptide)	EIA Sample/Cutoff ratio (S/CO) (S83 peptide)	EIA Sample/Cutoff ratio (S/CO) (S54 peptide)	EIA Sample/Cutoff ratio (S/CO) (DH2 peptide)	EIA Sample/Cutoff ratio (S/CO) (S85 peptide [2])	EIA Sample/Cutoff ratio (S/CO) (S52 peptide)	Kd (S67 peptide [3]) [nM]	Kd (S85 peptide [4]) [nM]	EIA Sample/Cutoff ratio (S/CO) (US1 peptide)	EIA Sample/Cutoff ratio (S/CO) (S87 peptide)
B1	16.1	24.7	12.7	25.4	5.7	24.8	24	1.1	11.5	18.9	18.6	25.6	1.4	18.1	24.3	–	–
B2	3.3	25.1	24.8	7.9	–	16.9	14.2	–	2.3	3.9	12.9	24.4	1.9	110	58.5	21	8.9

From patent publication WO2002045743A2 (dated 2002)
